Assay results as given in US12729239B2, “Anti-CEACAM5 antibodies and conjugates and uses thereof” (Merck Patent GmbH, priority 2020, dated 2026).

Key:
[1] = tested on: MDA-MB-231; assay: Viability assay (Cell Titer-Glo), MDA-MB-231; assay type: cell-based; conditions: Homo sapiens, read-out: Maximal effect compared to untreated controls at the highest tested concentration
Procedure: Cytotoxicity effects of the ADC on the cancer cell lines were measured by cell viability assays. Cells were seeded in a volume of 90 μL in 96-well plates the day before treatment. Test compounds (ADCs or free payloads) were formulated at 10-fold the starting concentration in cell culture medium. Test compounds were serial diluted (1:4) and 10 μL of each dilution was added to the cells in triplicates. Plates were cultured at 37° C. in a CO2 incubator for six days. For cell viability measurement, Cell Titer-Glo® reagent (Promega™ Corp, Madison, WI) was added to each well, and plates processed according to the manufacturer's instructions. Luminescence signals were measured using a Varioskan plate reader (Thermo Fisher). Luminescence readings were converted to % viability relative to untreated cells. Data was fitted with non-linear regression analysis, using log (inhibitor) vs. response, variable slope, 4-parameter fit equation using GraphPad Prism. Data is shown as % relative cell viability vs. molar compound concentration, error bars indicating standard deviation (SD) of triplicates. Geometric mean values of IC50s derived from multiple experiments were calculated.

[2] = in vivo; cited from earlier work
[3] = in vivo; cited from earlier work; remark: listed apart in the source
[4] = tested on: CEACAM5 from Macaca fascicularis; conditions: cited from earlier work
[5] = molecular target: T1, CEACAM-5 epitope in FFPE tissues/cells (Homo sapiens, UniProt P06731); assay: IHC staining on FFPE cancer cell lines versus CEACAM5 mRNA expression; assay type: binding; conditions: 104 cancer cell lines, CCLE dataset
T1 construct: formaldehyde fixed paraffin embedded (FFPE) cancer cell line microarrays (CMAs) and human tumor tissues; endogenous in cells; host or cells: 104 FFPE cancer cell lines (microarray)
T1 sequence (P06731 35-676): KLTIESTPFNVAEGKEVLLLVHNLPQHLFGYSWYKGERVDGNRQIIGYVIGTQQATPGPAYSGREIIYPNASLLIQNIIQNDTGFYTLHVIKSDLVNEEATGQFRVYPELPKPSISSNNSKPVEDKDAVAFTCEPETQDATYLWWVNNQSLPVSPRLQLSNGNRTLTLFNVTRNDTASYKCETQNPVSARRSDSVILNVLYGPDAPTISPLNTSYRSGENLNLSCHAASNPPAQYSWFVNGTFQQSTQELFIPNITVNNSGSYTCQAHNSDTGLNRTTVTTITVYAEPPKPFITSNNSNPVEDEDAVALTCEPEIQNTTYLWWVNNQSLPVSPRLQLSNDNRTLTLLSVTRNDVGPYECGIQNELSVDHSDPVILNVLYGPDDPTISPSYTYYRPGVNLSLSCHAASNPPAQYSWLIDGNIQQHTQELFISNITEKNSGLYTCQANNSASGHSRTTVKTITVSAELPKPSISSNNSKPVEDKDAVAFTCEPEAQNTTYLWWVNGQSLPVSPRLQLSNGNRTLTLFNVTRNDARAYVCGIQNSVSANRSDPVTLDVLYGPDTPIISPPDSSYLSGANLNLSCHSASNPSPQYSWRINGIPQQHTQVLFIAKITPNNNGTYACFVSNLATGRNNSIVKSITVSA
Procedure: For the IHC staining with the anti-CEACAM-5 antibody rb8G4, sections of 4 μm from formaldehyde fixed paraffin embedded (FFPE) cancer cell line microarrays (CMAs) and human tumor tissues were mounted on charged slides (SuperFrost Ultra Plus, Thermo Fisher Scientific or TOMO, Matsunami). The staining procedure was performed using a Discovery XT (Roche Diagnostics) staining platform. Following deparaffinization, the sections were heated for epitope retrieval in Tris-EDTA buffer pH 8 (CC1, Roche Diagnostics). The sections were incubated with the primary monoclonal antibody rb8G4 diluted to 0.5 or 0.7 μg/ml in phosphate-buffered saline (PBS) or antibody diluent buffer (DCS). The clone DA1E (rabbit monoclonal IgG, NEB) served as isotype control antibody. The primary antibodies were followed by the HQ anti-rabbit IgG detection kit (Roche Diagnostics). […]
CMAs and the TMA with human organ tissue were stained and scanned with the NanoZoomer (Hamamatsu) with a resolution of 0.46 μm/pixel. […] The scans of the CMAs were analyzed with the image analysis software HALO (Indica Labs, USA). For the determination of the amount of antigen present, positive brown stained area was calculated as percent area of the viable tissue area. Staining (arbitrary units) is calculated as Antibody staining (AU)=% positive tissue area*Average optic density (OD ranges from 0 to 1) of the brown colour. […]

Sequence of CEACAM5 from Macaca fascicularis (as listed by the source): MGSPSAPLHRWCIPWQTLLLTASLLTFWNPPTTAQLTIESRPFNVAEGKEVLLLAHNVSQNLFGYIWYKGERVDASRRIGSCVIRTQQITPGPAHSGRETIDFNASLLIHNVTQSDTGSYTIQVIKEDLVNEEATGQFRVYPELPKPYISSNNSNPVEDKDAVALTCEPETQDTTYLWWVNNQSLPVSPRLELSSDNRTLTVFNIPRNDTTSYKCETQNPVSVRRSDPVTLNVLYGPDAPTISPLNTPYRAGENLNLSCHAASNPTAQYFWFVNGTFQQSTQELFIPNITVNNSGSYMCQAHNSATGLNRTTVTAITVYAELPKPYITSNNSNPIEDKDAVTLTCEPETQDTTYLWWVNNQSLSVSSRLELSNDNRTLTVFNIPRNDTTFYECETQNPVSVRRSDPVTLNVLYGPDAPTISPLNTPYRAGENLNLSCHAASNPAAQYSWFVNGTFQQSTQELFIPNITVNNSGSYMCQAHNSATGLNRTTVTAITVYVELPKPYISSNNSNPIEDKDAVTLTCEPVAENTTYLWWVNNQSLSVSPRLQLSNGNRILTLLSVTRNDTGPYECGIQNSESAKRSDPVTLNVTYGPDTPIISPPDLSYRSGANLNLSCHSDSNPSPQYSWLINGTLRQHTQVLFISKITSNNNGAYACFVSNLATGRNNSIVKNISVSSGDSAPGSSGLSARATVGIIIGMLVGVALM

Molecule: CC[C@@]1(O)C(=O)OCc2c1cc1n(c2=O)Cc2c-1nc1cc(F)c(C)c3c1c2[C@@H](N)CC3 [PAYLOAD, (1S,9S)-1-Amino-9-ethyl-5-fluoro-1,2,3,9,12,15-hexahydro-9-hydroxy-4-methyl-10H,13H-benzo(de)pyrano(3′,4′:6,7)indolizino(1,2-b)quinoline-10,13-dione]
- Emax [1]: -92%

Molecule: Labetuzumab govitecan
- stability of the linker structure [2]: significant instability

Molecule: SAR408701: Sanofi anti-CEACAM5 ADC: SAR408377 linked to DM4 via SPDB linker
- side effects [3]: toxic side effects on several organs and tissues including the cornea of the eye

Molecule: hmn-14: known anti-CEACAM5 antibody as in labetuzumab govitecan; HC SEQ ID NO: 27, LC SEQ ID NO: 28
- cross-reactivity with CEACAM5 from Macaca fascicularis [4]: not cross-reacting

B1: rb8G4: human/rabbit chimeric variant of mAb1; HC SEQ ID NO: 29, LC SEQ ID NO: 30 (antibody)
heavy: EVQLQESGPGLVKPSQTLSLTCTVSDGSVSRGGYYLTWIRQHPGKGLEWIGYIYYSGSTYFNPSLRSRVTMSVDTSKNQFSLKLSSVTAADTAVYYCARGIAVAPFDYWGQGTLVTVSSQPKAPSVFPLAPCCGDTPSSTVTLGCLVKGYLPEPVTVTWNSGTLTNGVRTFPSVRQSSGLYSLSSVVSVTSSSQPVTCNVAHPATNTKVDKTVAPSTCSKPTCPPPELLGGPSVFIFPPKPKDTLMISRTPEVTCVVVDVSEDDPEVQFTWYINNEQVRTARPPLREQQFNSTIRVVSTLPIAHEDWLRGKEFKCKVHNKALPAPIEKTISKARGQPLEPKVYTMGPPREELSSRSVSLTCMINGFYPSDISVEWEKNGKAEDNYKTTPAVLDSDGSYFLYSKLSVPTSEWQRGDVFTCSVMHEALHNHYTQKSISRSPGK
light: EIVLTQSPATLSVSPGERATLSCRTSQSVRSNLAWYQQKPGQAPRLLIYAASTRATGIPARFSGSGSGTEFTLTISSLQSEDFAVYYCQQYTNWPFTFGPGTKVDIKRDPVAPSVLLFPPSKEELTTGTATIVCVANKFYPSDITVTWKVDGTTQQSGIENSKTPQSPEDNTYSLSSTLSLTSAQYNSHSVYTCEVVQGSASPIVQSFNRGDC
modifications: HC of rb8G4; LC of rb8G4
- Pearson correlation coefficient of IHC staining signal with mRNA expression [5]: 0.88
